Test results reported in US10428140B2, “Anti-EphA4 antibody” (EISAI R&D MANAGEMENT CO., LTD., priority 2015, dated 2019).
Positions count from the first letter of the chain named.

T1: human EphA7 (Homo sapiens, UniProt Q15375)
T1 construct: a protein of the extracellular region of each human Eph receptor fused with the SEAP protein and the His tag; made in house; host or cells: Expi293F cells (culture supernatant)
T1 sequence (Q15375 28-555 limits assumed): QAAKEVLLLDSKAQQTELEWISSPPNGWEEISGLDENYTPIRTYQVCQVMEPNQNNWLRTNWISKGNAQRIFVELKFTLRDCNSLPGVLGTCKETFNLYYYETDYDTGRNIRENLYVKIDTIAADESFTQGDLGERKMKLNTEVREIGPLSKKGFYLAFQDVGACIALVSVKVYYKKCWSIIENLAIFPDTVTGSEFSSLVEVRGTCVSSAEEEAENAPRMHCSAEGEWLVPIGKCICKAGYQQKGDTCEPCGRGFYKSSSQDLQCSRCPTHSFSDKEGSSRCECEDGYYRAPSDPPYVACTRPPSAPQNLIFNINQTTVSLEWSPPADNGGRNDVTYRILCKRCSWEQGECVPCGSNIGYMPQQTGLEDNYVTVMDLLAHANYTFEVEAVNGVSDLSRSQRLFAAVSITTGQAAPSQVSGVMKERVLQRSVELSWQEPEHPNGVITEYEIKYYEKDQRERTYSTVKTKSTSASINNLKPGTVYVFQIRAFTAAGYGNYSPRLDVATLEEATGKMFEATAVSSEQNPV

T2: human EphB2 (Homo sapiens, UniProt P29323)
T2 construct: a protein of the extracellular region of each human Eph receptor fused with the SEAP protein and the His tag; made in house; host or cells: Expi293F cells
T2 sequence (P29323 19-543 limits assumed): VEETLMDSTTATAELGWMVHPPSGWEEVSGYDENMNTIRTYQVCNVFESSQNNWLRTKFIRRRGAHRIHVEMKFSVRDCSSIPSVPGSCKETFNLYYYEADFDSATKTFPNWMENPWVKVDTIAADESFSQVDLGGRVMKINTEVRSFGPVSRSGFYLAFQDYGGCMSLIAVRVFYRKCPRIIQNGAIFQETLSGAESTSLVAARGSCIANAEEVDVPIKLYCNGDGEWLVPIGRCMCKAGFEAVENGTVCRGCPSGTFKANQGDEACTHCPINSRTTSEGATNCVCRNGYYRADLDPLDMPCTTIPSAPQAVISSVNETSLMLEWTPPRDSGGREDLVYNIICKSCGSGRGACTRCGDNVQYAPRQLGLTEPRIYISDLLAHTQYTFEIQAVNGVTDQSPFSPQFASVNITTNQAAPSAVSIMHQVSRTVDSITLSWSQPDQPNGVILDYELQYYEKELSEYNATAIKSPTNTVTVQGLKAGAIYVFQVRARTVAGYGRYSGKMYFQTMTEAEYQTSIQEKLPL

B1: 95 (antibody, V domains shown)
VL: EIVMTQSPATLSVSPGERATLSCRASENIYRNLAWYQQKPGQSPRLLIYAATNLADGIPARFSGSGSGTEYTLTISSLQSEDFAVYYCQHFWGTPWTFGQGTKVEIK
VH: QVQLVQSGSELKKPGASVKVSCKASGYTFTDYSMHWVRQAPGQGLEWMGWINTETGEPTYADDFKGRFVFSLDTSVSTAYLQISSLKAEDTAVYYCARIPLYYYGSRYWYFDVWGQGTTVTVSS
modifications: constant regions without entry; synthetic humanized antibody light chain variable region sequence; synthetic humanized antibody heavy chain variable region sequence
B2: 152 (antibody, V domains shown)
VH: B1 VH with D62Q, D63G, K65T
VL: DIQMTQSPSSLSASVGDRVTITCRASENIYRNLAWYQQKPGKAPKLLLYAATNLADGVPSRFSGSGSGTDYTLTISSLQSEDFATYYCQHFWGTPWTFGQGTKVEIK
modifications: synthetic humanized antibody heavy chain variable region sequence; synthetic humanized antibody light chain variable region sequence
B3: 138 (antibody, V domains shown)
VH: B1 VH with V2I, E46K, D62Q, D63G, K65T
VL: B2 VL with L48V, S80P
modifications: synthetic humanized antibody heavy chain variable region sequence; synthetic humanized antibody light chain variable region sequence
B4: 140 (antibody, V domains shown)
VH: B1 VH with E46K, D62Q, D63G, K65T
VL: B2 VL with L48V, S80P
modifications: synthetic humanized antibody heavy chain variable region sequence; synthetic humanized antibody light chain variable region sequence
B5: 141 (antibody, V domains shown)
VH: B1 VH
VL: B2 VL with L48V, S80P
modifications: synthetic humanized antibody heavy chain variable region sequence; synthetic humanized antibody light chain variable region sequence
B6: 139 (antibody)
VH: B1 VH with D62Q, D63G, K65T
VL: B2 VL with L48V, S80P
chain: ASTKGPSVFPLAPSSRSTSESTAALGCLVKDYFPEPVTVSWNSGALTSGVHTFPAVLQSSGLYSLSSVVTVPSSNFGTQTYTCNVDHKPSNTKVDKTVERKSCVECPPCPAPPAAAPSVFLFPPKPKDTLMISRTPEVTCVVVDVSHEDPEVQFNWYVDGVEVHNAKTKPREEQFNSTFRVVSVLTVVHQDWLNGKEYKCKVSNKGLPAPIEKTISKTKGQPREPQVYTLPPSREEMTKNQVSLTCLVKGFYPSDIAVEWESNGQPENNYKTTPPMLDSDGSFFLYSKLTVDKSRWQQGNVFSCSVMHEALHNHYTQKSLSLSPG
modifications: synthetic humanized antibody heavy chain variable region sequence; synthetic humanized antibody light chain variable region sequence; synthetic antibody constant region sequence
B7: 143 (antibody, V domains shown)
VH: B1 VH with V2I, E46K
VL: B2 VL with L48V, S80P
modifications: synthetic humanized antibody heavy chain variable region sequence; synthetic humanized antibody light chain variable region sequence
B8: 73 (antibody, V domains shown)
VH: B1 VH with V2I, E46K
VL: B1 VL
modifications: synthetic humanized antibody heavy chain variable region sequence; synthetic humanized antibody light chain variable region sequence
B9: 96 (antibody, V domains shown)
VL: B1 VL
VH: B1 VH with E46K
modifications: constant regions without entry; synthetic humanized antibody light chain variable region sequence; synthetic humanized antibody heavy chain variable region sequence
B10: 142 (antibody, V domains shown)
VH: B1 VH with E46K
VL: B2 VL with L48V, S80P
modifications: synthetic humanized antibody heavy chain variable region sequence; synthetic humanized antibody light chain variable region sequence

Target: T3, human EphA5 (Homo sapiens, UniProt P54756)
T3 construct: a protein of the extracellular region of each human Eph receptor fused with the SEAP protein and the His tag; made in house; host or cells: Expi293F cells (culture supernatant)
Experiment: Selectivity ELISA of humanized antibodies for human Eph receptor
Assay type: binding
Details: coated protein 1 nM
Summary of the method: (§1)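 Steps: coat anti-His antibody; block, then 1% BlockAce overnight at 4 °C; add Eph receptor extracellular region-SEAP-His (1 nM final) 1 h; add humanized antibody 1 h; add HRP anti-IgG 1 h; develop TMB; stop with acid; read 450 nm.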

T3 sequence (P54756 25-573 limits assumed): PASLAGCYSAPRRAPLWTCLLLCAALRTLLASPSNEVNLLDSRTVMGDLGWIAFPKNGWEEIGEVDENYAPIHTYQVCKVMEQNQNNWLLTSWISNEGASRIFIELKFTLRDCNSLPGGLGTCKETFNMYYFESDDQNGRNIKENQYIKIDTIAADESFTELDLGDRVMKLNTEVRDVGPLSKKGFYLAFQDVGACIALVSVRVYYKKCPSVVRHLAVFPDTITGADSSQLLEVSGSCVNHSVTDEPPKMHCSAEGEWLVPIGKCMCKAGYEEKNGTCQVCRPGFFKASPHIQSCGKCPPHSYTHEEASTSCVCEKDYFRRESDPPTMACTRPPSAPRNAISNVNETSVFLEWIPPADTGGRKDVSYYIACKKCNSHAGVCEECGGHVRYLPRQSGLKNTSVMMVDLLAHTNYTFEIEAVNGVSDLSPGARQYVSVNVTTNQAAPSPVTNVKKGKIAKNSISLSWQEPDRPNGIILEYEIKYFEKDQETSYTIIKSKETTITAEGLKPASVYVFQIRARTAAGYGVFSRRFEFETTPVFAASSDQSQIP

Row | Molecule | hEphA5-SEAP-: absorbance at 450 nm, percentage with respect to hEphA4-SEAP-His as 100%
1 | B1 | 4.6%
2 | B2 | 5.8%
3 | B3 | 5.1%
4 | B4 | 5.4%
5 | B5 | 5.3%
6 | B6 | 5.7%
7 | B7 | 6.1%
8 | B8 | 6.0%
9 | B9 | 6.0%
10 | B10 | 5.7%

Target: T1, human EphA7
Experiment: as above
Assay type: binding
Details: coated protein 1 nM
Summary of the method: as §1

Row | Molecule | hEphA7-SEAP-: absorbance at 450 nm, percentage with respect to hEphA4-SEAP-His as 100%
11 | B1 | 4.4%
12 | B2 | 5.7%
13 | B3 | 4.9%
14 | B4 | 5.2%
15 | B5 | 5.3%
16 | B6 | 5.5%
17 | B7 | 5.8%
18 | B8 | 5.6%
19 | B9 | 5.3%
20 | B10 | 5.5%

Target: T2, human EphB2
Experiment: as above
Assay type: binding
Details: coated protein 1 nM
Summary of the method: as §1

Row | Molecule | hEphB2-SEAP-: absorbance at 450 nm, percentage with respect to hEphA4-SEAP-His as 100%
21 | B1 | 4.7%
22 | B2 | 5.8%
23 | B3 | 5.2%
24 | B4 | 5.3%
25 | B5 | 5.2%
26 | B6 | 5.7%
27 | B7 | 5.8%
28 | B8 | 5.6%
29 | B9 | 5.5%
30 | B10 | 5.6%

Target: T4, human EphA4 (Homo sapiens, UniProt P54764)
T4 construct: made in house; not restated for the human SEAP-His protein
Experiment: as above
Assay type: binding
Details: coated protein 1 nM; reference set to 100%
Summary of the method: as §1

T4 sequence (P54764 20-547): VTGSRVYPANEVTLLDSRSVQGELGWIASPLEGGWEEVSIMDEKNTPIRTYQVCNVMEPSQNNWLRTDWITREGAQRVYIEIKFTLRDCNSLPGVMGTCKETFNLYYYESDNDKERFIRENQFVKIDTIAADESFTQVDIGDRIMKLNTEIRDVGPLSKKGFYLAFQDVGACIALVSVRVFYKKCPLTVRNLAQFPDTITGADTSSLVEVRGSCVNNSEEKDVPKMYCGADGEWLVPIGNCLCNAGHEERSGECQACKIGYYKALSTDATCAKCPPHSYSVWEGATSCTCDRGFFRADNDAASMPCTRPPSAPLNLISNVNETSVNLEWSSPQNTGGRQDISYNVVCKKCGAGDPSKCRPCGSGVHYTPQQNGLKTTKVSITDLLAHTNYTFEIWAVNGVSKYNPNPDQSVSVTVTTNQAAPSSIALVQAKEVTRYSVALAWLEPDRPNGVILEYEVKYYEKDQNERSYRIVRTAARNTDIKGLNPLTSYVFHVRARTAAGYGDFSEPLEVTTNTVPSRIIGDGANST

Row | Molecule | hEphA4-SEAP-: absorbance at 450 nm, percentage with respect to hEphA4-SEAP-His as 100%
31 | B1 | 100%
32 | B2 | 100%
33 | B3 | 100%
34 | B4 | 100%
35 | B5 | 100%
36 | B6 | 100%
37 | B7 | 100%
38 | B8 | 100%
39 | B9 | 100%
40 | B10 | 100%
